In the DeepSol protein solubility set:

Experiment: soluble on expression in E. coli; label from the status in PepcDB or PDB records

**Q.** Which “soluble on expression in E. coli” value does the source give for “ACRISPGQINQVRPKLPLLKILHAAGAQGEMFTVKEVMHYLGQYIMVKQLYDQQEQHMVYCGGDLLGELLGRQSFSVKDPSPLYDMLRKNLVTLATATTDA” here?
**A.** The value was “soluble”.

**Q.** For “MPKKPLIDQLHHEDSWRLFRILAEFVEGFETLSELQVPLVSVFGSARFGEGHPAYEAGYRLGRALAEAGFGVVTGGGPGVMEAVNRGAYEAGGVSVGLNIELPHEQKPNPYQTHALSLRYFFVRKVLFVRYAVGFVFLPGGFGTLDELSEVLVLLQTEKVHRFPVFLLDRGYWEGLVRWLAFLRDQKAVGPEDLQLFRLTDEPEEVVQALKAEAPPR”, which “soluble on expression in E. coli” value is on record?
**A.** Its value is “soluble”.

**Q.** Which “soluble on expression in E. coli” value does the source give for “MAHHHHHHMRKGKSPSSFFSLHKKYLLTGVTILSFIFMFQYKYHEVLTVYEDKTNVQQSSRLFWTRLLFGRTRSRITGRIFNIEIPHSYRLYVYNFFIKYLNINKEEIKYPIESYKSLGDFFSRYIREDTRPIGDLNEYSIVSPCDSEIVDFGELTSNYLDNVKGIKFNIKTFLGSDMIKKYNDDSTSFYYAIFYLSPKKYHHFHAPFNFKYKIRRHISGEVFPVFQGMFKIINNLFDINERVILSGEWKGGHVYYAAISAYNVGNIKIVNDEDLLTNNLRTQLSYMGGDINTKIYDHYKDLEIGDEVGEFKVGSSIIVIFENKKNFKWNVKPNQQISVGERIGGVDQPKQPKNKFIKIRS” here?
**A.** Its value is “soluble”.

**Q.** For “MPKIISKRKFNILRKTKEEIFSQIVYTKKRNGLHKAAKEYYFKDKDFTIIEDQQDRPDKPEELDTPDIPKPPKPPKGPDQPEEPGQPGGPDDPNSGNKKMPKPDEFVTHRQLQEFKKDLLVELHEIFPTKPELKRVEEKVDVLFELQKAQGEQIRIQGEQIKELKVEQKAQGETLQLILQTLQKMNDRLDKIEGKMDKMESRMDKMETRLDKLESK”, which “soluble on expression in E. coli” value is on record?
**A.** The value was “soluble”.

**Q.** Which “soluble on expression in E. coli” value does the source give for “MSLRDLPGQTGVQFTTGGVNHFLSWKSGGERHYFTSLAFTHTNRNRTCWLYGLDYQIKEYTYENKAIPKAQFTGELGYFIPVLSDKGRNVCFRIGLSVLGGFETVNWGTSLLPDGAAVTNGDCFIYGGGLTAAFDVWLTDRIILLMQVKERAFFGTDAGNFHTQIGLGVRLIINEGHHHHHH” here?
**A.** The value was “not soluble”.

**Q.** For “MSLTNFVGSVLEATKEAIRALNPQNSTIYESLMVGAGGDVSLKADLMCEEILSARLRHFGHIHSEESGLIEGESQDIIYLDPLDGSTNLSSLIPYYGTSVALCDPEGRTKAAAVINFCSGETFIKTDAFALHGSIWQPIDTFVPIRPLEHASKIGIFEGSHRNAPWVLGLHQKGLKFRSPGAIALSMAYAHNVSFVLFDGEIREYDTKAGLFLCSDLHIHHDERALLISRDPIIFENLLELISQKGEGHHHHHH”, which “soluble on expression in E. coli” value is on record?
**A.** Its value is “soluble”.

**Q.** Which “soluble on expression in E. coli” value does the source give for “MGSDKIHHHHHHMKTFLESLKFPVQEVNKKSSGEKGPGRPPYWEMVFYWTRKPLVGARSVIAGALLPENVDENLFKAAVRLSSPTPHRENPQIPAEFAKYFEGKKLLDPFAGFGSIPLEGLRLGLDVTAVELLPTTYIFLKAVLEYPKKFGKSLVKDVERWGEWITEQLKNDPEIRELYDDDVAVYIGTWEIRCPHCGRWTPAIGNFWLARVKDGKGYKRLAYMKPERKGDEIEIRVIDLNEILDDISKANVDGNEIIFEGENYVKTVEEAVRDGKLKQSDVKIDGNTVIFEVPSANIESRRDQLTCLMCGNVIKYADENGNHHMKLKNGDFYVKFALRKYHEGDERFARQRLLVKVKVKDGDLIFEPATKEDSEKLWKAKEKVREMLEKGDLDVPSEAIPLYENRRITPILSAEKWYQFFNPRQLLTLIKIVRLIREVGRKVEEEKIAEGWNKERAFEYAEAVATYLSTAMLKYAYYNSIVTRWDSTWWKIGETMSTRGIAMNWNWTESPWFSSFGGMIKTLLAILRGVKYLTSALSSSQRTLADFTENSVKVLQGDATSLNLGEKFDVIVTDPPYADDVPYTELSDFYYVWLKRALSDVENGKLIPRFHKEAFFKRIGPKWVEIKTQWQEFAKKEVSTNPGRFMEDENKKEKAVQHFENLFSQAFVAMREHLKDDGVLVTYYAHTDPGSWINLIEAGWRRARLQITRAIPLTTESETSIVSRGKMSLDTSIVAVWRKQKEEKTVQISTLKEEIERKAKSSAREFIEYGYEGLDLLYGVMAAALEEVTKYREISSLKGPLTTEEILNEYVYPATIRGIVNAIAEIEGTGTLHSGTAMFYTAYKILFGNASLSANDIVLLRLATSTDPSELISSGVLKEKRSSSSKEYTLYTPDLLGKKALDTKEFQKFLHEKKLDPVEPKPKNSVDVLQLLEYYSLLGRSRVKEEIEKLRKMWAGEVEEALFIARLVSEYYAEIYIRKIDPVRRMKEEFASEIDRELEKDGFLEVVLMRRLLGYVGGAV” here?
**A.** The value was “not soluble”.

**Q.** For “MSLRKRPDSVTPDLLHVDRSAMGPLAERMRPRTLDDMVGQKRLLAPDSALRRAVESGRVHSMILWGPPGCGKTTLALLLAHYADAEFNAISAVLSGLPEVRQVLAEAAQRFAGGRRTVLFVDEVHRFNKAQQDAFLPHIERGTILFVGATTENPSFELNSALLSRCRVHVLEGVSPQDIVEALQRALHDAERGLGQQTIQVSEASLLEIASAADGDVRRALTLLEIAAELATGEGGEITPRTLLQVLADRTRRFDKNGEQFYDQISALHKSVRSSNPDAALYWLTRMLDGGCDPTYLARRLTRMAIEDIGLADPRAQGMALEAWDIYERLGSPEGELAFAQLVLYLASTAKSNAGYAAFNQARAEVRATGTQEVPLHLRNAPTKLMKTLGYGQDYQYDHDAEGGIALDQTGFPDAMGERVYYNPMPRGMEIKLKEKLDRLRETRGQAREGHHHHHH”, which “soluble on expression in E. coli” value is on record?
**A.** Its value is “soluble”.

**Q.** For “MSLGSAIETLERLLKKRLRVPQEQLDTNPWLLNCANGTVDLRTGTLKAHRPEDYITRVVPLNFDPKATAPEFITTLARITCEEGQAGKPLCAFLQRWFGYCATGEVREQKFAVLYGDGNNGKSTLLDLITGILGRYSGVAAPGLLTGKNGPQHPNAIADLAGRRMVTTHESGEGEVLREDFVKQATGGDTLKARYLYGEFFEFKPTHKLQLLTNHKPAIKGQDSGIWRRIMLIPFKAKFDAAEGEEIGNGKYPRDMRIAEKLAAEREGVLAWIVAGAVEWYKNGLRPPDIVLAASEDYKEEQDRVGQFIDEECELGVEKEEKLSTPMGGGLYPAYTQWCKASGVCALSKVRFLGGLERRVPGFKKKVTKETVGAGKRREFVVIQGVALVDADEGHHHHHH”, which “soluble on expression in E. coli” value is on record?
**A.** Its value is “not soluble”.

**Q.** With “MGHHHHHHSHMANSAGSMANSAGSKEFAYQNKVEELTSYAVQIANEFQSGQVDMRRLYPYQDILSTRKTQFIIFNEEQQPYFLPEGFHHPPREQLKKSEWNKLKKGQTVTIRADGRFDDEVSLVAQPIFVQNEFKGAVLLISPISGVEQMVNQ” as the sequence, how does the “soluble on expression in E. coli” value read?
**A.** The value was “not soluble”.

**Q.** With “MSLSGRAGRHERTGEVIVQSYNPEHYSIEFAKKHDFIGFYNHEMQLRKMGSYPPFYYLTMINVSDENEMKAIRTIQEMAQFLRGKLGPDAVILGPVPSTITRIKNKYRYQCIIKYKIEPNLKKELKTLITHYQKDQQKGLTITIDVQPYVLMEGHHHHHH” as the sequence, how does the “soluble on expression in E. coli” value read?
**A.** Its value is “soluble”.

**Q.** With “AIARTDSSKMTDVESGVANFASSARAGRRNALPDIQSSAATDGTSDLPLKLEALSVKEDAKEKDEKTTQDQLEKPQNEEK” as the sequence, how does the “soluble on expression in E. coli” value read?
**A.** The value was “soluble”.

**Q.** For “MSLLLENCKLETGFSTVNQRIVATETASYDIRIENEVCTAVAPQLRPLENETVIDVNQQLVLPALREMHIHIDKTYFGGPWKACRPLTKGILTRIEEETWLLPEQLPTSLERACQVIEQYIQQGHYHIRSHCNVDPSIGTKHIEITKEAFSRYEQYITHEIVAFPQHGLLRSQVEPLMREALRMGATHVGGVDPALVDRHVDHSIAKIFELATTFNKKIDVHLHARDTLGLYEFNKFVDYTEQAKMFGKVTLSHALALGSLEEAAIRDIAQKFIETGIDLTSTVPIGMPTMPIPTLVEQGVKISVAHDSLTDHWSPFGSGNTIEKLNTAAQRFKISDEYRLNRLWGLASNFVTPLDPNGQQVWPNVGDSADFLLFNAESTAHVIARQQPIQQLILKGQLVEAVQKGEKEEGHHHHHH”, which “soluble on expression in E. coli” value is on record?
**A.** The value was “soluble”.

**Q.** For “MISRIHIEEFRDIGDLELFFLPGVNLLIGDNGSGKTSVLKACQYVLGTFFCGFKMDHTPTWTQLTPEAKDFRRRVSSDGDELMKHPIKFNFDLRYEENGQNPIELTDQILTKRNTLGRALTTTFQDHQDYTKGLLEGYATDEGRYRPLPVFVFYSVEDIHTKRKVSHSLFQKYRHMASFGYYHALTENAFLDFWIKRMLILREEEQAGNHELAVVRGALLSALGTDGAGVLQDLSIRINKKAVYWKLLDGREISSEHLPDGLRRVISIVVDLAFRCALLNQTLYQSDSALKSEGTVLIDEIDLHLHPRLQASILKGLRKAFPRLQFIITSHAPMVMSSVDADDKYNIVYKMSYNQEMSQYEALKQSTYGLDVSTIMRMILGLAPRDKQVDERLTHLFDLIDLEKYSEATIALQSLQDQFDDSLPELSKASVMLHFLSSEQNEENH”, which “soluble on expression in E. coli” value is on record?
**A.** Its value is “not soluble”.

**Q.** For “MSLSKTLLEIRLNSLIDLRMFYFISLYFRLENKESHKSQEIGNLIRVYNRSKREEAESEPLNLYVEDEKGNLLAGLIAETFGNWLEIEYLFVKEELRGQGIGSKLLQQAESEAKNRNCCFAFVNTYQFQAPDFYQKHGYKEVFSLQDYLYIRQRYYYQKNLEGHHHHHH”, which “soluble on expression in E. coli” value is on record?
**A.** The value was “not soluble”.

**Q.** With “ASAFSESEETFVRIVAQWAGKEISRRRNQKRANAERERLRQIIDTIPQQVFVKDADGTYTLANKAAAAAHGVAVERLEGATHDEFALSDEQRDFKSDDAAVIENGESVHIEEDGLVEADGSSHTVQTDIVPIEIAS” as the sequence, how does the “soluble on expression in E. coli” value read?
**A.** Its value is “not soluble”.

**Q.** Which “soluble on expression in E. coli” value does the source give for “MAHHHHHHMDAPVNVFLRFGLSHSERLNHLLERVGTAQAAFRIVGPRQQEGVARTPAHPHDGADCARVGAPFSVHSGSCSHTCKGEAHDELCASLARLPPLPSPPPASHTCYCLHRTRFRCFCFPSPSLLQRRTLGGGGIGVGRAADVQHPFNGQEPALSVYFTHCHAGLRRTSPRCLISYCGRVSSLRFAFPLGDQVTFFVPLFHTDTSSMGTTHEYEPPVAMKPLEELTDADRREMRDLGIGEGMFNCILTSCMKFALSGGWSVRKHDAKYDIVWETKPSQNSNKQAMRFTAKVPNCNTGSLEAILVADEYLEDDPNVSYMYKYDRLLQQNHAEKRIAGNVTVQSTHYGAPVMFVAPRHIISYVTLGALLTPAQQKELWIRPTGLRDQLADAERKDDLMAFTQCCIDYTGDAVELRKGSERGHVYSYSLLGQEEPDGSMTVTMTLDIDPAGKLPAKVVDMSSDEQHKKMQRIVELLKAKGPQPHLCSVYQNTRDFPFRNPSKGEGEGKRS” here?
**A.** Its value is “soluble”.

**Q.** For “MGSDKIHHHHHHMSNRDKILSYRDLIKKKLIPLINADYVLLDVPNHPNIGDNLIWEGELRFLENIHYKCIYSANVHNWDENKIKDAKIILFHGGGNWGDLYRECQEHRLYIAEKFKDKRIIIFPQTVWYNNKSILPIDCKIFNNHADIHICLRDQMSMDILSNYVDAKKLYLLPDMAFFVDVEAMPMRKVRNDCILFMLRTDSEIDDITFKLESDFDVKDWPTFSNNKYILLLYSYFEYFKVVVSKRLQKCKFLNVFVSPIYGLNRKNNRERYIYKGINFFSNYEIIYTTRLHGLILGILMDKKVIIVDNKYNKCKNYYDTWLREFDNIELMS”, which “soluble on expression in E. coli” value is on record?
**A.** The value was “not soluble”.

**Q.** Which “soluble on expression in E. coli” value does the source give for “MAEVMSQTLEDAMRRNPHLRKYVEEFRRKYGKIPEFHVQLSRDMKEIPYPNIIYPVGDPIFIHIYGDPNTEKQYIVIEPRIETKEEEEKYKLIRDRMLELAPNKDIPEEQEEFERFLDSLFEEAVL” here?
**A.** Its value is “not soluble”.
